Source: patent publication US11156615B2 (priority 2015, dated 2021)
Positions count from the first letter of the chain named. In names and notes the source's numbering stands.

Columns and labels:
[1] = Thermostability: mid-point thermal denaturation temperature (Tm) from temperature-dependent fluorescence (Roche LightCycler); type: physicochemical; conditions: apo-protein
Description: Protein (un)folding is monitored by binding of SYPRO to the unfolded state as a function of temperature. Fluorescence intensity increases upon binding of SYPRO by the unfolded state.
Panels A-C: ttGBP182C.2.0-Imm0; Panels D-F: ttGBP182C.2.0-Imm1 (see FIG. 13). (A) Solution (Tm=347.6K). (B) Immobilized on Nickel-nitriloacetic acid (Ni-NTA) beads (Tm=346.7K). (C) Reconstituted, desiccated Ni-NTA beads (Tm=347.6K). (D) Fluorescence response of ttGGBP5.2 Imm1 immobilized on NHS-functionalized agarose beads. Data was collected on a Roche LightCycler real-time PCS instrument, recording emission intensities at 488 nm and 510 nm as a function of temperature in a 384-well microtiter plate. […] Temperature melts of twelve different wells. Apo protein thermostability as reported by the denaturation mid-point temperature is 349 K, similar to the protein free in solution. […] (F) Representative Langmuir ligand-binding curve extracted from the three-dimensional data.
Temperatures were advanced in 1K steps. […] Under these experimental photobleaching was not observed.

[2] = Glucose binding: isothermal fluorescence titrations, ratiometric (appKd) and monochromatic (trueKd) fits; parameters: key to Glucose appKd / Glucose trueKd: nb, no bonding; conditions: room temperature
Description: 2 For a single glucose-binding site, the fractional saturation is given by
[formula] where ^apoIλ2 and ^satIλ2 are the emission intensities of the monochromatic signal at wavelength λ2 of the ligand-free and ligand-bound protein, respectively.

[3] = Galactose binding: isothermal fluorescence titrations of conjugates; parameters: key to Galactose trueKd: nb, no bonding; conditions: for Galactose trueKd: Badan conjugate; for Galactose trueKd / Kd: monochromatic titration curves, room temperature; for S, selectivity = trueKd(galactose)/trueKd(glucose) / Kd: Acrylodan conjugate; for S, selectivity = trueKd(galactose)/trueKd(glucose): S > 1, selective for glucose; for Kd: read-out: Galactose trueKd

B1: ttGGBP17C.19: affinity-tuning mutant, 17C background, SEQ ID NO: 77 (protein)
chain: MKQLNIGVAIYKFDDTCMTGVRNAMTAEAQGKAKLNMVDSQNSQPTQNDQVDLFITKKMNALAINPVDRTAAGTIIDKAKQANIPVVFFNREPLPEDMKKWDKVYYVGAKAEQSGILQGQIMADYWKAHPEADKNHDGVMQYVMLMGQPGHQDAILRTQYSIQTVKDAGIKVQELAKDYANWDRVTAHDKMAAWLSSFGDKIEAVFANNDDMALGAIEALKSAGYFTGNKYIPVVGVDATAPGIQAIKDGTLLGTVLDDAKNQAKATFNIAYELAQGITPTKDNIGYDITDGKYVWIPYKKITKDNISDAEQGGSHHHHHH
modifications: ttGGBP17C.19 (affinity-tuning mutant, 17C background (Table 6) with signal peptide replaced with M and GGSHHHHHH at C-terminus)
Q: Which results are given for B1?
A: apoTm ([1]; Badan conjugate): 344 K; Glucose appKd ([2]; Badan conjugate, dichromatic ratiometry): nb^e; Glucose trueKd ([2]; Badan conjugate, monochromatic titration curves): nb^e; Galactose trueKd [3]: nb^e

B2: ttGGBP17C.21: affinity-tuning mutant, 17C background, SEQ ID NO: 79 (protein)
chain: B1 chain with D258A
modifications: ttGGBP17C.21 (affinity-tuning mutant, 17C background (Table 6) with signal peptide replaced with M and GGSHHHHHH at C-terminus)
Q: With B2 as the molecule, how does the apoTm ([1]; Badan conjugate) read?
A: 345 K

Q: And the Kd ([2]; read-out: Glucose appKd, Badan conjugate, dichromatic ratiometry)?
A: 61 mM

Q: What about the Kd ([2]; read-out: Glucose trueKd, Badan conjugate, monochromatic titration curves) of the same molecule?
A: 69 mM

Q: What about the “Galactose trueKd” value [3] of the same molecule?
A: nb

B3: ttGGBP182C.2.0: affinity-tuning mutant, 182C background (R91K, Q148E), SEQ ID NO: 88 and 298 (protein)
chain: B1 chain with C17F, R91K, Q148E, W182C, D258N
modifications: ttGGBP182C.2.0 (affinity-tuning mutant, 182C background (Table 6) with signal peptide replaced with M and GGSHHHHHH at C-terminus)
Q: With B3 as the molecule, how does the apoTm ([1]; Acrylodan conjugate) read?
A: 346 K

Q: What about the Kd ([2]; read-out: Glucose appKd, Acrylodan conjugate, dichromatic ratiometry) of the same molecule?
A: 4.5 mM

Q: What about the Kd ([2]; read-out: Glucose trueKd, Acrylodan conjugate, monochromatic titration curves) of the same molecule?
A: 6 mM

Q: And the “S, selectivity = trueKd(galactose)/trueKd(glucose)” value [3]?
A: 3.1

Q: What about the Kd [3] of the same molecule?
A: 18.5 mM

B4: ttGGBP182C.2.4: affinity-tuning mutant, 182C background, SEQ ID NO: 91 (protein)
chain: B1 chain with C17F, R91K, Q148E, A154M, W182C, D258N
modifications: ttGGBP182C.2.4 (affinity-tuning mutant, 182C background (Table 6) with signal peptide replaced with M and GGSHHHHHH at C-terminus)
Q: With B4 as the molecule, how does the apoTm ([1]; Acrylodan conjugate) read?
A: 346 K

Q: What about the Kd [3] of the same molecule?
A: 4.5 mM

B5: ttGGBP182C.2.8: affinity-tuning mutant, 182C background, SEQ ID NO: 95 (protein)
chain: B1 chain with D15N, C17F, R91K, Q148E, W182C, D258N
modifications: ttGGBP182C.2.8 (affinity-tuning mutant, 182C background (Table 6) with signal peptide replaced with M and GGSHHHHHH at C-terminus)
Q: Which results are given for B5?
A: apoTm ([1]; Acrylodan conjugate): 343 K; S, selectivity = trueKd(galactose)/trueKd(glucose) [3]: 1.8

B6: ttGGBP182C.7: affinity-tuning mutant, 182C background, SEQ ID NO: 101 (protein)
chain: B1 chain with C17F, R91K, Q148S, W182C, D258N
modifications: ttGGBP182C.7 (affinity-tuning mutant, 182C background (Table 6) with signal peptide replaced with M and GGSHHHHHH at C-terminus)
Q: For B6, which apoTm ([1]; Acrylodan conjugate) is on record?
A: 346 K

Q: And the Kd [3]?
A: 1.1 mM
